Assay results taken from paper PMC9359501 (Med (New York, N.Y.), 2022).

Biological target: SARS-CoV-2 Spike S1 (Omicron), His-tagged (SARS-CoV-2 Omicron B.1.1.529 BA.1, strain)
Test: SPR

B1: S309 (sotrovimab) reference clone neutralizing antibody (antibody, V domains shown)
VH: not shown
VL: EIVLTQSPGTLSLSPGERATLSCRASQTVSSTSLAWYQQKPGQAPRLLIYGASSRATGIPDRFSGSGSGTDFTLTISRLEPEDFAVYYCQQHDTSLTFGGGTKVEIK
  Kd: 24.5 nM
  koff: 0.000395 s⁻¹
  kon: 16200 M⁻¹ s⁻¹

B2: LY-CoV1404 (bebtelovimab) reference clone neutralizing antibody (antibody, V domains shown)
VH: QITLKESGPTLVKPTQTLTLTCTFSGFSLSISGVGVGWLRQPPGKALEWLALIYWDDDKRYSPSLKSRLTISKDTSKNQVVLKMTNIDPVDTATYYCAHHSISTIFDHWGQGTLVTVSS
VL: QSALTQPASVSGSPGQSITISCTATSSDVGDYNYVSWYQQHPGKAPKLMIFEVSDRPSGISNRFSGSKSGNTASLTISGLQAEDEADYYCSSYTTSSAVFGGGTKLTVL
  Kd: 85.5 nM
  koff: 0.00677 s⁻¹
  kon: 79200 M⁻¹ s⁻¹
